From PMC4703963
Values belong to the binder of their own block, whether it stands above or below them.

What was measured:
Conditions in all cases: remark: other sources report otherwise
[1] = target: Flag-tagged catalytic domain of PHD2 (181-426) (human), Q9GZT9; experiment: non-reducing SDS-PAGE with immunoblot; total cell lysates (1% IGEPAL, 150 mM NaCl, 50 mM Tris-HCl pH 7.9, no reducing agent) in sample buffer without β-ME; cells treated with H2O2 (50-200 uM), T-hydro (1-3 uM), diamide (0.1-1 mM), 10% FBS or expressing H-ras V12
[2] = target: Prolyl hydroxylase domain protein 2 (PHD2), endogenous (human (endogenous in U2OS, H2030, A549)), Q9GZT9; experiment: as above
[3] = target: Flag-tagged PHD2 (with an HA-tagged copy of PHD2 in the co-immunoprecipitation) (human), Q9GZT9; experiment: as above
[4] = target: Wild-type HA-PHD2 purified from HEK293T cells (human), Q9GZT9; experiment: non-reducing SDS-PAGE with immunoblot; tagged PHD2 affinity-purified (Flag or HA gel, peptide elution) from H2O2-treated HEK293T cells, run without DTT
[5] = target: Flag-tagged PHD2 purified from HEK293T cells (human), Q9GZT9; experiment: as above

B2: Prolyl hydroxylase domain protein 2 (PHD2), endogenous, Q9GZT9 1-426 (natural protein)
chain: MANDSGGPGGPSPSERDRQYCELCGKMENLLRCSRCRSSFYCCKEHQRQDWKKHKLVCQGSEGALGHGVGPHQHSGPAPPAAVPPPRAGAREPRKAAARRDNASGDAAKGKVKAKPPADPAAAASPCRAAAGGQGSAVAAEAEPGKEEPPARSSLFQEKANLYPPSNTPGDALSPGGGLRPNGQTKPLPALKLALEYIVPCMNKHGICVVDDFLGKETGQQIGDEVRALHDTGKFTDGQLVSQKSDSSKDIRGDKITWIEGKEPGCETIGLLMSSMDDLIRHCNGKLGSYKINGRTKAMVACYPGNGTGYVRHVDNPNGDGRCVTCIYYLNKDWDAKVSGGILRIFPEGKAQFADIEPKFDRLLFFWSDRRNPHEVQPAYATRYAITVWYFDADERARAKVKYLTGEKGVRVELNKPSDSVGKDVF
stoichiometry N [2]: 2

B5: Flag-tagged PHD2 purified from HEK293T cells, Q9GZT9 1-426 (natural protein)
chain: B2 chain
stoichiometry N [5]: 2

The next lines start with the values.

stoichiometry N [1]: 2
B1: Flag-tagged catalytic domain of PHD2 (181-426), Q9GZT9 181-426 (domain or fragment)
chain: PNGQTKPLPALKLALEYIVPCMNKHGICVVDDFLGKETGQQIGDEVRALHDTGKFTDGQLVSQKSDSSKDIRGDKITWIEGKEPGCETIGLLMSSMDDLIRHCNGKLGSYKINGRTKAMVACYPGNGTGYVRHVDNPNGDGRCVTCIYYLNKDWDAKVSGGILRIFPEGKAQFADIEPKFDRLLFFWSDRRNPHEVQPAYATRYAITVWYFDADERARAKVKYLTGEKGVRVELNKPSDSVGKDVF

stoichiometry N [3]: 2
B3: Flag-tagged PHD2 (with an HA-tagged copy of PHD2 in the co-immunoprecipitation), Q9GZT9 1-426 (natural protein)
chain: B2 chain

stoichiometry N [4]: 2
B4: Wild-type HA-PHD2 purified from HEK293T cells, Q9GZT9 1-426 (natural protein)
chain: B2 chain
